# According to patent US20190307836A1 (Bicycle, published 2019):
# Starred links: 1 amine or outer side, 2 acyl side, 3 side chain; linkers in the order of their positions; H or OH if unused. Positions of bridges follow the written chain, without caps; N, C: chain ends. Non-standard residues stand in square brackets, D forms with d. Chains are numbered I, II in the order given. No end group written: not given here. *: point of attachment. TATA = O=C(CC[*:1])N1CN(C(=O)CC[*:2])CN(C(=O)CC[*:3])C1; Dap(PYA) = diaminopropionic acid bearing 4-pentynoyl; 1Nal = N[C@@H](Cc1cccc2ccccc12)C(=O)O; Hyp = O=C(O)[C@@H]1C[C@@H](O)CN1; hArg = N=C(N)NCCCC[C@H](N)C(=O)O; tBuAla = CC(C)(C)C[C@H](N)C(=O)O; Nle = CCCC[C@H](N)C(=O)O; Pent4ynoyl = C#CCCC(=O)*; Dap = NC[C@H](N)C(=O)O; βAla = NCCC(=O)O; Sar = CNCC(=O)O
# T1: Human Nectin-4 (residues Gly32-Ser349; NCBI RefSeq: NP_112178.2) with C-terminal FLAG tag (human, UniProt Q96NY8 32-349, randomly biotinylated with EZ-Link Sulfo-NHS-LC-LC-Biotin)
# T1 construct: range 32-349; also called human Nectin-4 protein; not shown: C-terminal FLAG tag
# T1 sequence (looked up): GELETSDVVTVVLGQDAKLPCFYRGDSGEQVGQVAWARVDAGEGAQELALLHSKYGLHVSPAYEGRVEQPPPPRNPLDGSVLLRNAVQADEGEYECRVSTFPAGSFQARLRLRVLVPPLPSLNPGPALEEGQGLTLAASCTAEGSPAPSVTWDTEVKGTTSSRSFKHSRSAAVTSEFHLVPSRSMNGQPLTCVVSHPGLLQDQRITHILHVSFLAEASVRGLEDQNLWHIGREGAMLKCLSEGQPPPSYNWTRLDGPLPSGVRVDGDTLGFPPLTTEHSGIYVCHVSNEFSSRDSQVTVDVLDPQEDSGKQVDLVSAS
# B1: heterotandem bicyclic peptide complex BCY9759 (peptide)
# peptide 1: CPXDCMXDWSTPXWC
# peptide 2: ACIEEGQYCFADPYXC
# modifications: BCY7732: N-terminal acetyl; Nle12; C-terminal Dap (diaminopropionic acid) bearing the linker; Ci, Cii, Ciii on TATA scaffold; BCY8116: linker on N-terminus; 1Nal2, dD3, HArg5, HyP11; Ci, Cii, Ciii on TATA scaffold
# B2: heterotandem bicyclic peptide complex BCY9351 (peptide)
# peptide 1: CPXDCMXDWSTPXWC
# peptide 2: ACIEEGQYCFADPYXC
# modifications: BCY8045: N-terminal acetyl; D-Ala8, Nle12; C-terminal Dap (diaminopropionic acid) bearing the linker; Ci, Cii, Ciii on TATA scaffold; BCY8846: N-terminal [PYA]-[B-Ala]-[Sar10]- (linker on PYA); 1Nal2, dD3, HArg5, HyP11; Ci, Cii, Ciii on TATA scaffold
# B3: heterotandem bicyclic peptide complex BCY8854 (peptide)
# peptide 1: CPXDCMXDWSTPXWC
# peptide 2: ACIEEGQYCFADPYXC
# modifications: BCY7732: N-terminal acetyl; Nle12; C-terminal Dap (diaminopropionic acid) bearing the linker; Ci, Cii, Ciii on TATA scaffold; BCY8846: N-terminal [PYA]-[B-Ala]-[Sar10]- (linker on PYA); 1Nal2, dD3, HArg5, HyP11; Ci, Cii, Ciii on TATA scaffold
# B4: heterotandem bicyclic peptide complex BCY10000 (peptide)
# peptide 1: {Pent4ynoyl-βAla}-[Sar][Sar][Sar][Sar][Sar][Sar][Sar][Sar][Sar][Sar]CP[1Nal][dD]CM[hArg]DWSTP[Hyp]WC
# peptide 2: Ac-C[tBuAla]PE[dA]PYCFADPY[Nle]C[Dap]
# modifications: linker I:11-I:15-I:25, II:1-II:8-II:15 via TATA; not fully specified (C-terminus); numbers in words are those of the source; also: linker to a chain's N/C-terminus via PEG12
# B5: heterotandem bicyclic peptide complex BCY10572 (peptide)
# peptide 1: CP[1Nal][dD]CM[hArg]DWSTP[Hyp]WC
# peptide 2: Ac-C[tBuAla]PE[dK](Pent4ynoyl)PYCFADPY[Nle]CA
# modifications: linker I:1-I:5-I:15, II:1-II:8-II:15 via TATA; not fully specified (C-terminus, bridges); also: chains joined by PEG5 linker on chain 1 N-terminus, triazole to D-Lys(PYA)
# B6: heterotandem bicyclic peptide complex BCY10571 (peptide)
# peptide 1: CP[1Nal][dD]CM[hArg]DWSTP[Hyp]WC
# peptide 2: Ac-C[tBuAla]PK(Pent4ynoyl)[dA]PYCFADPY[Nle]CA
# modifications: linker I:1-I:5-I:15, II:1-II:8-II:15 via TATA; not fully specified (C-terminus, bridges); also: chains joined by PEG5 linker on chain 1 N-terminus, triazole to K(PYA)
# B7: heterotandem bicyclic peptide complex BCY8943 (peptide)
# peptide 1: VGPCLWDPTPCANLHLXC
# peptide 2: ACIEEGQYCFADPYXC
# modifications: BCY7732: N-terminal acetyl; Nle12; C-terminal Dap (diaminopropionic acid) bearing the linker; Ci, Cii, Ciii on TATA scaffold; BCY8941: N-terminal [PYA]-[B-Ala]-[Sar10]- (linker on PYA); HArg12; Ci, Cii, Ciii on TATA scaffold
# B8: heterotandem bicyclic peptide complex BCY9758 (peptide)
# peptide 1: AXDCXLVNPLCLHPDWXC
# peptide 2: ACIEEGQYCFADPYXC
# modifications: BCY7732: N-terminal acetyl; Nle12; C-terminal Dap (diaminopropionic acid) bearing the linker; Ci, Cii, Ciii on TATA scaffold; BCY6099: N-terminal [B-Ala]-[Sar10]- (linker on N-terminus); HArg in the A-[HArg]-D extension; HyP1, dD10, HArg12; Ci, Cii, Ciii on TATA scaffold
# B9: heterotandem bicyclic peptide complex BCY9173 (peptide)
# peptide 1: {Pent4ynoyl-βAla}-[Sar][Sar][Sar][Sar][Sar][Sar][Sar][Sar][Sar][Sar]A[hArg]DC[Hyp]LVNPLCLHP[dD]W[hArg]C
# peptide 2: Ac-C[tBuAla]PE[dA]PYCFADPY[Nle]C[Dap]
# modifications: linker I:14-I:21-I:28, II:1-II:8-II:15 via TATA; numbers in words are those of the source; also: heterotandem: PYA of chain 1 linked via PEG12 to C-terminal Dap of chain 2
# B10: heterotandem bicyclic peptide complex BCY7985 (peptide)
# peptide 1: AXDCXLVNPLCLHPDWXC
# peptide 2: ACIEEGQYCFADPYXC
# modifications: BCY7732: N-terminal acetyl; Nle12; C-terminal Dap (diaminopropionic acid) bearing the linker; Ci, Cii, Ciii on TATA scaffold; BCY6169: N-terminal [PYA]-[B-Ala]-[Sar10]- (linker on PYA); HArg in the A-[HArg]-D extension; HyP1, dD10, HArg12; Ci, Cii, Ciii on TATA scaffold
# notes: also called EphA2-CD137 heterotandem BCY7985
# B11: heterotandem bicyclic peptide complex BCY10577 (peptide)
# peptide 1: {Pent4ynoyl-βAla}-[Sar][Sar][Sar][Sar][Sar][Sar][Sar][Sar][Sar][Sar]A[hArg]DC[Hyp]LVNPLCLHP[dD]W[hArg]C
# peptide 2: Ac-C[tBuAla]PE[dA]PYCFADPY[Nle]C[Dap]
# modifications: linker I:14-I:21-I:28, II:1-II:8-II:15 via TATA; not fully specified (C-terminus); numbers in words are those of the source; also: chains joined by CH2 linker, triazole from PYA, linker on Dap side chain
# B12: heterotandem bicyclic peptide complex BCY8942 (peptide)
# peptide 1: AXDCXLVNPLCLHPDWXC
# peptide 2: ACIEEGQYCFADPYXC
# modifications: BCY8045: N-terminal acetyl; D-Ala8, Nle12; C-terminal Dap (diaminopropionic acid) bearing the linker; Ci, Cii, Ciii on TATA scaffold; BCY6169: N-terminal [PYA]-[B-Ala]-[Sar10]- (linker on PYA); HArg in the A-[HArg]-D extension; HyP1, dD10, HArg12; Ci, Cii, Ciii on TATA scaffold
# B13: heterotandem bicyclic peptide complex BCY9350 (peptide)
# peptide 1: CPXDCMXDWSTPXWC
# peptide 2: ACIEEGQYCFADPYXC
# modifications: BCY7732: N-terminal acetyl; Nle12; C-terminal Dap (diaminopropionic acid) bearing the linker; Ci, Cii, Ciii on TATA scaffold; BCY11942: N-terminal [PYA]-[B-Ala]-[Sar10]- (linker on PYA); 1Nal2, dD3, HArg5, dW7, HyP11, dW12; Ci, Cii, Ciii on TATA scaffold
# B14: heterotandem bicyclic peptide complex BCY10573 (peptide)
# peptide 1: CP[1Nal][dD]CM[hArg]DWSTP[Hyp]WC
# peptide 2: Ac-C[tBuAla]PE[dA]PYCFADPY[Nle]C-{Dap(PYA)}
# modifications: linker I:1-I:5-I:15, II:1-II:8-II:15 via TATA; not fully specified (C-terminus); also: linker to a chain's N/C-terminus via PEG5
# Target: T1, Human Nectin-4 (residues Gly32-Ser349; …)
# Assay: SPR (Biacore 3000), biotinylated human Nectin-4 on streptavidin chip
# Protocol: Streptavidin was immobilized on the chip using standard amine-coupling chemistry at 25° C. with HBS-N (10 mM HEPES, 0.15 M NaCl, pH 7.4) as the running buffer. […] Buffer was changed to PBS/0.05% Tween 20 and a dilution series of the peptides was prepared in this buffer with a final DMSO concentration of 0.5%. […] Data were corrected for DMSO excluded volume effects. All data were double-referenced for blank injections and reference surface using standard processing procedures and data processing and kinetic fitting were performed using Scrubber software, version 2.0c (BioLogic Software). Data were fitted using simple 1:1 binding model allowing for mass transport effects where appropriate.
row,Binder,Kd [nM]
1,B1,2.14
2,B2,2.47
3,B3,2.76
4,B4,2.26

# Target: CD137 on human PBMC (anti-CD3 stimulated) (human, UniProt Q07011 24-255)
# Sequence (Q07011 24-255): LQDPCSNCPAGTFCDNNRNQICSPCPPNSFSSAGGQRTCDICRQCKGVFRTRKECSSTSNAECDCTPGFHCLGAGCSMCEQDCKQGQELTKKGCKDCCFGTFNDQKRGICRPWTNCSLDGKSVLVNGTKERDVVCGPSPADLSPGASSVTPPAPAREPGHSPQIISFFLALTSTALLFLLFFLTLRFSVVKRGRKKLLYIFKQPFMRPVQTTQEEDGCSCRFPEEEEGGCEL
# Assay: cell-based or functional assay
Binder,"EC50 (nM), IFN-γ secretion, human PBMC co-culture with 4T1-D02(Nectin4+) [nM]","max IFN-γ (pg/ml), human PBMC co-culture with 4T1-D02(Nectin4+) [pg/mL]"
B5,0.25,17900
B6,0.44,18300
B3,0.89,16000
B4,0.21,19600

# Target: CD137 expressed on cells (CHO cells expressing CD137); Jurkat cells of the Promega CD137 luciferase reporter … (UniProt Q07011 24-255, limits assumed)
# Sequence (Q07011 24-255 limits assumed): as the sequence (Q07011 24-255) above
# Assay: cell-based or functional assay
Binder,"Fold Induction over Background, CD137 reporter assay, co-culture with PC3 (EphA2) [fold]","EC50 (nM), CD137 reporter assay, co-culture with H1376 (Nectin4) [nM]","EC50 (nM), CD137 reporter assay, co-culture with SC-OV-3 (EphA2) [nM]","Fold Induction over Background, CD137 reporter assay, co-culture with SC-OV-3 (EphA2) [fold]"
B7,< 2,,,
B1,,2.7,,
B8,,,1.2,7
B3,,1.2,,
B9,,,0.94,21
B4,,0.58,,
B10,,,4,15

# Target: CD137 expressed on cells (CHO cells expressing CD137; Jurkat cells of the Promega CD137 luciferase reporter assay) (UniProt Q07011)
# Sequence (Q07011 24-255 limits assumed): as the sequence (Q07011 24-255) above
# Assay: cell-based or functional assay
Binder,"EC50 (nM), CD137 reporter assay, co-culture with PC3 (EphA2) [nM]","Fold Induction over Background, CD137 reporter assay, co-culture with PC3 (EphA2) [fold]","Fold Induction over Background, CD137 reporter assay, co-culture with H1376 (Nectin4) [fold]"
B11,0.28,37,
B12,,< 2,
B13,,,< 2
B2,,,< 2

# Target: T2, Recombinant human CD137 (R&D systems) (human, UniProt Q07011 24-186, biotinylated with EZ-Link Sulfo-NHS-LC-LC-Biotin)
# T2 construct: Bought protein; also called human CD137 protein; TNFRSF9
# Assay: SPR (Biacore), biotinylated human CD137 on streptavidin chip
# Protocol: The protein was desalted to remove uncoupled biotin using spin columns into PBS.
# For analysis of peptide binding, a Biacore T200 or a Biacore 3000 instrument was used with a XanTec CMD500D chip. Streptavidin was immobilized on the chip using standard amine-coupling chemistry at 25° C. with HBS-N (10 mM HEPES, 0.15 M NaCl, pH 7.4) as the running buffer. Briefly, the carboxymethyl dextran surface was activated with a 7 min injection of a 1:1 ratio of 0.4 M 1-ethyl-3-(3-dimethylaminopropyl) carbodiimide hydrochloride (EDC)/0.1 M N-hydroxy succinimide (NHS) at a flow rate of 10 μl/min. For capture of streptavidin, the protein was diluted to 0.2 mg/ml in 10 mM sodium acetate (pH 4.5) and captured by injecting 120 μl of onto the activated chip surface. Residual activated groups were blocked with a 7 min injection of 1 M ethanolamine (pH 8.5) and biotinylated CD137 captured to a level of 270-1500 RU. Buffer was changed to PBS/0.05% Tween 20 and a dilution series of the peptides was prepared in this buffer with a final DMSO concentration of 0.5%. The top peptide concentration was 500 nM with 6 further 2-fold or 3-fold dilutions. The SPR analysis was run at 25° C. at a flow rate of 90 μl/min with 60 seconds association and 900 seconds dissociation. After each cycle a regeneration step (10 μl of 10 mM glycine pH 2) was employed. Data were corrected for DMSO excluded volume effects as needed. All data were double-referenced for blank injections and reference surface using standard processing procedures and data processing and kinetic fitting were performed using Scrubber software, version 2.0c (BioLogic Software). Data were fitted using simple 1:1 binding model allowing for mass transport effects where appropriate.
row,Binder,Kd [nM]
1,B7,156
2,B12,853
3,B5,5
4,B14,3.39
5,B6,12
6,B13,69.4
7,B1,44.3
8,B2,3640
9,B8,189
10,B3,108
11,B9,7.98
12,B4,6.19
13,B10,143

# Target: T3, human EphA2 protein (human, UniProt P29317 25-534, limits assumed, biotinylated with EZ-Link Sulfo-NHS-LC-Biotin)
# T3 construct: Construct not described
# T3 sequence (P29317 25-534 limits assumed): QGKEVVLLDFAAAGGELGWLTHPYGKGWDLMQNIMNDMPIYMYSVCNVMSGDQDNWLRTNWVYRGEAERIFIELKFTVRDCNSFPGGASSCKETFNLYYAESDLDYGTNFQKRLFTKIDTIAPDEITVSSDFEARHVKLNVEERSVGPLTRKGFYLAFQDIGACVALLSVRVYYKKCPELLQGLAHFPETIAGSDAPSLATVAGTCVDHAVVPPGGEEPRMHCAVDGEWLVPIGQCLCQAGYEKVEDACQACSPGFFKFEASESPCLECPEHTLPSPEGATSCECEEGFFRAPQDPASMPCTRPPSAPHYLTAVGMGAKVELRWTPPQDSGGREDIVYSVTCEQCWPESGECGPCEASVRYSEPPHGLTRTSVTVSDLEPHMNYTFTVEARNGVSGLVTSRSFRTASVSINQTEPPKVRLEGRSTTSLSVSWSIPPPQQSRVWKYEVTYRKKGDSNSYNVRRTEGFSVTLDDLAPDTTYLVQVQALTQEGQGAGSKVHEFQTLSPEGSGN
# Assay: SPR (Biacore T200), biotinylated human EphA2 on streptavidin chip
# Protocol: Streptavidin was immobilized on the chip using standard amine-coupling chemistry at 25° C. with HBS-N (10 mM HEPES, 0.15 M NaCl, pH 7.4) as the running buffer. Briefly, the carboxymethyl dextran surface was activated with a 7 min injection of a 1:1 ratio of 0.4 M 1-ethyl-3-(3-dimethylaminopropyl) carbodiimide hydrochloride (EDC)/0.1 M N-hydroxy succinimide (NHS) at a flow rate of 10 μl/min. […] Data were corrected for DMSO excluded volume effects. All data were double-referenced for blank injections and reference surface using standard processing procedures and data processing and kinetic fitting were performed using Scrubber software, version 2.0c (BioLogic Software). Data were fitted using simple 1:1 binding model allowing for mass transport effects where appropriate.
row,Binder,Kd [nM]
1,B12,1.7
2,B8,1.5
3,B9,2.1
4,B10,2
